{"source": "paper PMC5779225"}
{"test": "surface biotinylation, NeutrAvidin pull-down, immunoblot", "conditions": "glycan lost; control: wild type"}
{"protein": "Frizzled3 (Fzd3): N42Q (protein) parent chain: MAVSWIVFDLWLLTVFLGQIGGHSLFSCEPITLRMCQDLPYNTTFMPNLLNHYDQQTAALAMEPFHPMVNLDCSRDFRPFLCALYAPICMEYGRVTLPCRRLCQRAYSECSKLMEMFGVPWPEDMECSRFPDCDEPYPRLVDLNLVGDPTEGAPVAVQRDYGFWCPRELKIDPDLGYSFLHVRDCSPPCPNMYFRREELSFARYFIGLISIICLSATLFTFLTFLIDVTRFRYPERPIIFYAVCYMMVSLIFFIGFLLEDRVACNASSPAQYKASTVTQGSHNKACTMLFMVLYFFTMAGSVWWVILTITWFLAAVPKWGSEAIEKKALLFHASAWGIPGTLTIILLAMNKIEGDNISGVCFVGLYDVDALRYFVLAPLCLYVVVGVSLLLAGIISLNRVRIEIPLEKENQDKLVKFMIRIGVFSILYLVPLLVVIGCYFYEQAYRGIWETTWIQERCREYHIPCPYQVTQMSRPDLILFLMKYLMALIVGIPSIFWVGSKKTCFEWASFFHGRRKKEIVNESRQVLQEPDFAQSLLRDPNTPIIRKSRGTSTQGTSTHASSTQLAMVDDQRSKAGSVHSKVSSYHGSLHRSRDGRYTPCSYRGMEERLPHGSMSRLTDHSRHSSSHRLNEQSRHSSIRDLSNNPMTHITHGTSMNRVIEEDGTSA", "localisation_or_trafficking": "decreases"}
{"protein": "Frizzled3 (Fzd3): 2NQ (protein) parent chain: MAVSWIVFDLWLLTVFLGQIGGHSLFSCEPITLRMCQDLPYNTTFMPNLLNHYDQQTAALAMEPFHPMVNLDCSRDFRPFLCALYAPICMEYGRVTLPCRRLCQRAYSECSKLMEMFGVPWPEDMECSRFPDCDEPYPRLVDLNLVGDPTEGAPVAVQRDYGFWCPRELKIDPDLGYSFLHVRDCSPPCPNMYFRREELSFARYFIGLISIICLSATLFTFLTFLIDVTRFRYPERPIIFYAVCYMMVSLIFFIGFLLEDRVACNASSPAQYKASTVTQGSHNKACTMLFMVLYFFTMAGSVWWVILTITWFLAAVPKWGSEAIEKKALLFHASAWGIPGTLTIILLAMNKIEGDNISGVCFVGLYDVDALRYFVLAPLCLYVVVGVSLLLAGIISLNRVRIEIPLEKENQDKLVKFMIRIGVFSILYLVPLLVVIGCYFYEQAYRGIWETTWIQERCREYHIPCPYQVTQMSRPDLILFLMKYLMALIVGIPSIFWVGSKKTCFEWASFFHGRRKKEIVNESRQVLQEPDFAQSLLRDPNTPIIRKSRGTSTQGTSTHASSTQLAMVDDQRSKAGSVHSKVSSYHGSLHRSRDGRYTPCSYRGMEERLPHGSMSRLTDHSRHSSSHRLNEQSRHSSIRDLSNNPMTHITHGTSMNRVIEEDGTSA", "localisation_or_trafficking": "changes"}
{"protein": "Frizzled3 (Fzd3): N356Q (protein) parent chain: MAVSWIVFDLWLLTVFLGQIGGHSLFSCEPITLRMCQDLPYNTTFMPNLLNHYDQQTAALAMEPFHPMVNLDCSRDFRPFLCALYAPICMEYGRVTLPCRRLCQRAYSECSKLMEMFGVPWPEDMECSRFPDCDEPYPRLVDLNLVGDPTEGAPVAVQRDYGFWCPRELKIDPDLGYSFLHVRDCSPPCPNMYFRREELSFARYFIGLISIICLSATLFTFLTFLIDVTRFRYPERPIIFYAVCYMMVSLIFFIGFLLEDRVACNASSPAQYKASTVTQGSHNKACTMLFMVLYFFTMAGSVWWVILTITWFLAAVPKWGSEAIEKKALLFHASAWGIPGTLTIILLAMNKIEGDNISGVCFVGLYDVDALRYFVLAPLCLYVVVGVSLLLAGIISLNRVRIEIPLEKENQDKLVKFMIRIGVFSILYLVPLLVVIGCYFYEQAYRGIWETTWIQERCREYHIPCPYQVTQMSRPDLILFLMKYLMALIVGIPSIFWVGSKKTCFEWASFFHGRRKKEIVNESRQVLQEPDFAQSLLRDPNTPIIRKSRGTSTQGTSTHASSTQLAMVDDQRSKAGSVHSKVSSYHGSLHRSRDGRYTPCSYRGMEERLPHGSMSRLTDHSRHSSSHRLNEQSRHSSIRDLSNNPMTHITHGTSMNRVIEEDGTSA", "localisation_or_trafficking": "abolishes"}
